Biological target: T1, 人PRL蛋白 (native prolactin in pituitary tumour tissue sections) (human, UniProt P01236 29-227)
T1 construct: Endogenous protein detected by immunohistochemistry in paraffin sections of pituitary tumours; also called 催乳素
T1 sequence (looked up): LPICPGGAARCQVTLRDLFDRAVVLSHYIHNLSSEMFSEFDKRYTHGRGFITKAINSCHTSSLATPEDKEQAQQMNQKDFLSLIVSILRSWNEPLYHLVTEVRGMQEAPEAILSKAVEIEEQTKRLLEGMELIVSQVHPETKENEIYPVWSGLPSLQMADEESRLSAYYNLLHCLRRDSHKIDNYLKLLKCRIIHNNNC
Assay: immunohistochemistry on 9 pituitary tumour sections

B1: 抗PRL蛋白单克隆抗体(2C10D5H11) (antibody, V domains shown)
VH: QIQLVQSGPELKKPGETVKISCKASGYSFTNSAMSWVHQAPGKGLKWMGFINTKTGEPTYVEEFRGRFVFSLETSASTAYLQINNLKNEDTATYFCAKETDNSDDYWGQGTTLTVSS
VL: QIVLTQSPAIMSASPGEMVTLTCSASSSVSSSYLYWYQQKPGSSPKLWIYSTSNLASGVPARFSGSGSGTSYSLTISSMEAEDAASYFCHQWSSYPPTFGGGTKLEIK
notes: also called anti-PRL monoclonal antibody; antibody of hybridoma CGMCC NO.22311
Does B1 bind?
Result: binds
